1 substance from paper PMC10086585 can be followed below.

For the assay, the target named is recombinant human netrin‐1 (R&D), on HIS1K biosensors (human) (UniProt O95631). In words: BLI; netrin-1 on HIS1K biosensors; m-Laminin-I at 3.12-100 nM; 30°C, 1,000 rpm; PBS, 0.02% Tween-20, 0.1% BSA; 5 min association, 5 min dissociation. A general note: BLI is a label-free optical method that tracks binding on a fibre tip over time.

By Kd is commonly meant a measure of binding affinity in units of concentration. For mouse laminin‐I (complex), the Kd is 0.0295 µM.
